Common to all, as to assay: negative-stain TEM
Data set [1] concerns the target muscle PFK1 (PFKM), phosphofructokinase-1, 780-amino-acid isoform 2 (human) (UniProt P08237).
For data set [2], the target named is platelet PFK1 (PFKP), phosphofructokinase-1 (human) (UniProt Q01813).
Data set [3] concerns the target PFKL-H199Y, point mutant at the sugar substrate binding site (human) (UniProt P17858).
The data set “negative-stain TEM” concerns the molecule itself.

Broadly, the stoichiometry N is the number of molecules, sites or subunits per partner or assembly. Turning to “muscle PFK1 (PFKM), phosphofructokinase-1, 780-amino-acid isoform 2 (from UniProt P08237-1 1-780) (enzyme)”, the stoichiometry N in data set [1] was determined as 4.

Consider “platelet PFK1 (PFKP), phosphofructokinase-1 (from UniProt Q01813 1-784) (enzyme)”, for which the stoichiometry N in data set [2] came to 4. With “PFKL-H199Y, point mutant at the sugar substrate binding site (from UniProt P17858-1 1-780) (enzyme)”, the stoichiometry N in data set [3] stood at 4.

B1: liver PFK1 (PFKL), phosphofructokinase-1, 780-amino-acid isoform b (enzyme, human, UniProt P17858-1 1-780, looked up)
chain: MAAVDLEKLRASGAGKAIGVLTSGGDAQGMNAAVRAVTRMGIYVGAKVFLIYEGYEGLVEGGENIKQANWLSVSNIIQLGGTIIGSARCKAFTTREGRRAAAYNLVQHGITNLCVIGGDGSLTGANIFRSEWGSLLEELVAEGKISETTARTYSHLNIAGLVGSIDNDFCGTDMTIGTDSALHRIMEVIDAITTTAQSHQRTFVLEVMGRHCGYLALVSALASGADWLFIPEAPPEDGWENFMCERLGETRSRGSRLNIIIIAEGAIDRNGKPISSSYVKDLVVQRLGFDTRVTVLGHVQRGGTPSAFDRILSSKMGMEAVMALLEATPDTPACVVTLSGNQSVRLPLMECVQMTKEVQKAMDDKRFDEATQLRGGSFENNWNIYKLLAHQKPPKEKSNFSLAILNVGAPAAGMNAAVRSAVRTGISHGHTVYVVHDGFEGLAKGQVQEVGWHDVAGWLGRGGSMLGTKRTLPKGQLESIVENIRIYGIHALLVVGGFEAYEGVLQLVEARGRYEELCIVMCVIPATISNNVPGTDFSLGSDTAVNAAMESCDRIKQSASGTKRRVFIVETMGGYCGYLATVTGIAVGADAAYVFEDPFNIHDLKVNVEHMTEKMKTDIQRGLVLRNEKCHDYYTTEFLYNLYSSEGKGVFDCRTNVLGHLQQGGAPTPFDRNYGTKLGVKAMLWLSEKLREVYRKGRVFANAPDSACVIGLKKKAVAFSPVTELKKDTDFEHRMPREQWWLSLRLMLKMLAQYRISMAAYVSGELEHVTRRTLSMDKGF
Regarding B1, the “stoichiometry N” value in “negative-stain TEM” stood at 4.

The values are drawn from publication PMC5551713 (The Journal of Cell Biology, 2017).
